Columns and labels:
[1] = biological target: B-cell maturation antigen (BCMA) (human) (UniProt Q02223); assay: cell-based or functional assay
[2] = biological target: BCMA expressed on MM1S cells (human) (UniProt Q02223); assay: cell-based or functional assay
Sequence of BCMA expressed on MM1S cells (human) (Q02223 whole entry): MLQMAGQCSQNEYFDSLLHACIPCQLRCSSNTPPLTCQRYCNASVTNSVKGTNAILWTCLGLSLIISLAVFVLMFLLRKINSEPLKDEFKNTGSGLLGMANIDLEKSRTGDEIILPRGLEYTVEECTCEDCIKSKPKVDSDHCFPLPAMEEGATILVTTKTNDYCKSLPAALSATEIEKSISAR

Sequence of B-cell maturation antigen (BCMA) (human) (Q02223 whole entry): as above

% CD107a+ (in CD8+) (degranulation, MM1S cells, Donor 3) [1] [%]	MFI CD107a+ (degranulation, MM1S cells, Donor 3) [1] [MFI]	% CD107a+ (in CD8+) (degranulation, MM1S cells, Donor 2) [1] [%]	MFI CD107a+ (degranulation, MM1S cells, Donor 2) [1] [MFI]	Binder	other results
68.2	1960	–	–	PC1C12-V1 (protein) EVQLLESGGGLVQPGGSLRLSCAASGFTFSSYPMSWVRQAPGKGLEWVSAIGGSGGWSYYADSVKGRFTISRDNSKNTLYLQMNSLRAEDTAVYYCARYWPMDSWGQGTLVTVSSGGGGSGGGGSGGGGSEIVLTQSPGTLSLSPGERATLSCWLSQSVSSTYLAWYQQKPGQAPRLLIYDASSRAPGIPDRFSGSGSGTDFTLTISRLEPEDFAVYYCQQYSEWPLTFGQGTKVEIKGLAVSTISSFFPPGYQIYIWAPLAGTCGVLLLSLVITLYCKRGRKKLLYIFKQPFMRPVQTTQEEDGCSCRFPEEEEGGCELRVKFSRSADAPAYQQGQNQLYNELNLGRREEYDVLDKRRGRDPEMGGKPRRKNPQEGLYNELQKDKMAEAYSEIGMKGERRRGKGHDGLYQGLSTATKDTYDALHMQALPPR	–
75.6	2180	–	–	PC1-V1 (protein) EVQLLESGGGLVQPGGSLRLSCAASGFTFSSYPMSWVRQAPGKGLEWVSAIGGSGGSTYYADSVKGRFTISRDNSKNTLYLQMNSLRAEDTAVYYCARYWPMDSWGQGTLVTVSSGGGGSGGGGSGGGGSEIVLTQSPGTLSLSPGERATLSCRASQSVSSTYLAWYQQKPGQAPRLLIYDASSRAPGIPDRFSGSGSGTDFTLTISRLEPEDFAVYYCQQYSTSPLTFGQGTKVEIKGLAVSTISSFFPPGYQIYIWAPLAGTCGVLLLSLVITLYCKRGRKKLLYIFKQPFMRPVQTTQEEDGCSCRFPEEEEGGCELRVKFSRSADAPAYQQGQNQLYNELNLGRREEYDVLDKRRGRDPEMGGKPRRKNPQEGLYNELQKDKMAEAYSEIGMKGERRRGKGHDGLYQGLSTATKDTYDALHMQALPPR	–

The remaining lines, values behind:

Binder	% CD107a+ (in CD8+) (degranulation, MM1S cells, Donor 3) [1] [%]	MFI CD107a+ (degranulation, MM1S cells, Donor 3) [1] [MFI]	% CD107a+ (in CD8+) (degranulation, MM1S cells, Donor 2) [1] [%]	MFI CD107a+ (degranulation, MM1S cells, Donor 2) [1] [MFI]	other results
P6AP-V1 (protein) EVQLLESGGGLVQPGGSLRLSCAASGFTFGSYAMTWVRQAPGKGLEWVSAISGSGGNTFYADSVKGRFTISRDNSKNTLYLQMNSLRAEDTAVYYCARVSPIAAPMDYWGQGTLVTVSSGGGGSGGGGSGGGGSEIVLTQSPGTLSLSPGERATLSCRASQLGSFYLAWYQQKPGQAPRLLIYGASSRATGIPDRFSGSGSGTDFTLTISRLEPEDFAVYYCQHYNYPPSFTFGQGTKVEIKGLAVSTISSFFPPGYQIYIWAPLAGTCGVLLLSLVITLYCKRGRKKLLYIFKQPFMRPVQTTQEEDGCSCRFPEEEEGGCELRVKFSRSADAPAYQQGQNQLYNELNLGRREEYDVLDKRRGRDPEMGGKPRRKNPQEGLYNELQKDKMAEAYSEIGMKGERRRGKGHDGLYQGLSTATKDTYDALHMQALPPR	–	–	–	–	% CD107a+ (in CD8+) (degranulation, Donor 1, co-culture with MM1S) [2]: 46.4%; MFI CD107a+ (degranulation, CD8+ T cells, Donor 1, co-culture with MM1S) [2]: 1850 MFI
COM22-V1 (protein) EVQLLESGGGLVQPGGSLRLSCAASGFTFSSYAMNWVRQAPGKGLEWVSAISDSGGSRWYADSVKGRFTISRDNSKNTLYLQMNSLRAEDTAVYYCTRYWPMDIWGQGTLVTVSSGGGGSGGGGSGGGGSEIVLTQSPGTLSLSPGERATLSCRASVRVSSTYLAWYQQKPGQAPRLLMYDASIRATGIPDRFSGSGSGTDFTLTISRLEPEDFAVYYCQQYMKWPLTFGQGTKVEIKGLAVSTISSFFPPGYQIYIWAPLAGTCGVLLLSLVITLYCKRGRKKLLYIFKQPFMRPVQTTQEEDGCSCRFPEEEEGGCELRVKFSRSADAPAYQQGQNQLYNELNLGRREEYDVLDKRRGRDPEMGGKPRRKNPQEGLYNELQKDKMAEAYSEIGMKGERRRGKGHDGLYQGLSTATKDTYDALHMQALPPR	76.1	2220	–	–	–
P5AC16-V1 (protein) EVQLLESGGGLVQPGGSLRLSCAASGFTFSSYAMNWVRQAPGKGLEWVSAISDFGGSTYYADSVKGRFTISRDNSKNTLYLQMNSLRAEDTAVYYCARYWPMDIWGQGTLVTVSSGGGGSGGGGSGGGGSEIVLTQSPGTLSLSPGERATLSCRASQSVSDLYLAWYQQKPGQAPRLLMYDASIRATGIPDRFSGSGSGTDFTLTISRLEPEDFAVYYCQQYQTWPLTFGQGTKVEIKGLAVSTISSFFPPGYQIYIWAPLAGTCGVLLLSLVITLYCKRGRKKLLYIFKQPFMRPVQTTQEEDGCSCRFPEEEEGGCELRVKFSRSADAPAYQQGQNQLYNELNLGRREEYDVLDKRRGRDPEMGGKPRRKNPQEGLYNELQKDKMAEAYSEIGMKGERRRGKGHDGLYQGLSTATKDTYDALHMQALPPR	–	–	61.6	1860	–
P5A-V1 (protein) EVQLLESGGGLVQPGGSLRLSCAASGFTFSSYAMNWVRQAPGKGLEWVSAISDSGGSTYYADSVKGRFTISRDNSKNTLYLQMNSLRAEDTAVYYCARYWPMDIWGQGTLVTVSSGGGGSGGGGSGGGGSEIVLTQSPGTLSLSPGERATLSCRASQSVSSSYLAWYQQKPGQAPRLLMYDASIRATGIPDRFSGSGSGTDFTLTISRLEPEDFAVYYCQQYGSWPLTFGQGTKVEIKGLAVSTISSFFPPGYQIYIWAPLAGTCGVLLLSLVITLYCKRGRKKLLYIFKQPFMRPVQTTQEEDGCSCRFPEEEEGGCELRVKFSRSADAPAYQQGQNQLYNELNLGRREEYDVLDKRRGRDPEMGGKPRRKNPQEGLYNELQKDKMAEAYSEIGMKGERRRGKGHDGLYQGLSTATKDTYDALHMQALPPR	–	–	77.6	2670	–
P5AC1-V1 (protein) EVQLLESGGGLVQPGGSLRLSCAASGFTFSSYAMNWVRQAPGKGLEWVSAILSSGGSTYYADSVKGRFTISRDNSKNTLYLQMNSLRAEDTAVYYCARYWPMDIWGQGTLVTVSSGGGGSGGGGSGGGGSEIVLTQSPGTLSLSPGERATLSCRGGQSVSSSYLAWYQQKPGQAPRLLMYDASIRATGIPDRFSGSGSGTDFTLTISRLEPEDFAVYYCQQYQSWPLTFGQGTKVEIKGLAVSTISSFFPPGYQIYIWAPLAGTCGVLLLSLVITLYCKRGRKKLLYIFKQPFMRPVQTTQEEDGCSCRFPEEEEGGCELRVKFSRSADAPAYQQGQNQLYNELNLGRREEYDVLDKRRGRDPEMGGKPRRKNPQEGLYNELQKDKMAEAYSEIGMKGERRRGKGHDGLYQGLSTATKDTYDALHMQALPPR	–	–	68.6	2190	–
